Laboratory results taken from publication PMC3793935.
The star is where a group is joined. NH(3-CONH2-4-NO2-Ph) = NC(=O)c1cc(N*)ccc1[N+](=O)[O-]

Target: T1, GS-SplD, recombinant SplD protease containing the Gly-Ser dipeptide at the N-terminus (Staphylococcus aureus strain 8325-4) (UniProt Q2FXC5)
T1 sequence: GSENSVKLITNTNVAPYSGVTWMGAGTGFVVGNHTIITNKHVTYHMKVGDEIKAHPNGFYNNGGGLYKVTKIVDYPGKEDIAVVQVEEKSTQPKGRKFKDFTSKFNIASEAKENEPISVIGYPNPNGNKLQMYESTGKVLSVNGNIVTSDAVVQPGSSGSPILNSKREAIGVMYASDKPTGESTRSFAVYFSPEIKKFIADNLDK

B1: ABZ-Trp-Leu-Val-Ser-ANB-NH2 (peptide)
peptide: {ABZ}-WLVS-{NH(3-CONH2-4-NO2-Ph)-NH2}
Km of hydrolysis of the fluorescence-quenched peptide substrate by wild type SplD: 31.1 µM

B2: ABZ-Trp-Leu-Thr-Ser-ANB-NH2 (peptide)
peptide: {ABZ}-WLTS-{NH(3-CONH2-4-NO2-Ph)-NH2}
Km of hydrolysis of the fluorescence-quenched peptide substrate by wild type SplD: 14.7 µM
